Measurements taken from publication PMC12774660 (Nucleic Acids Research, 2026).

Molecular target: T1, CPSF73 (human, UniProt Q9UKF6 1-684)
T1 sequence: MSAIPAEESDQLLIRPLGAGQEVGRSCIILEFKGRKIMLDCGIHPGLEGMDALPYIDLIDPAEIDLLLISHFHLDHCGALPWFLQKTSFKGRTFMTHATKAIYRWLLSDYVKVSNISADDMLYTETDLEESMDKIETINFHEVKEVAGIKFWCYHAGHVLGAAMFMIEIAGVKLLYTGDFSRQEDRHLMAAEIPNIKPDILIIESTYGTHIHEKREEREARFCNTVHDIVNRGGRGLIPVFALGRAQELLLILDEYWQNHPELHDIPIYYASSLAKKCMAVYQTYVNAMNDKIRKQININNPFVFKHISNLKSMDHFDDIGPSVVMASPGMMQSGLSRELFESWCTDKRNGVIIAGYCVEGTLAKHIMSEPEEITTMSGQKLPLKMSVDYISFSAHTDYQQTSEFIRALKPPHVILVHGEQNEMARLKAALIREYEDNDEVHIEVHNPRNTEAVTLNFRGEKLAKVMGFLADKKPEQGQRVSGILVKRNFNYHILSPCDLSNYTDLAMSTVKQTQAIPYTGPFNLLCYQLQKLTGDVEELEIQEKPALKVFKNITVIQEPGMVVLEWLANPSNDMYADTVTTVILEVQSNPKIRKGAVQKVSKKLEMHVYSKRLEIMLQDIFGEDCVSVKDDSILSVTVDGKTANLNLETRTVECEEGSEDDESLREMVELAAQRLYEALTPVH
Assay: cell-based or functional assay

B1: Lsm11 R109E/I110A/R112E/L113A/R114E/L116A (natural protein, human, UniProt P83369 1-360, looked up)
chain: MEERERGARSAGAGSPARPPSPRLDVSSDSFDPLLALYAPRLPPIPYPNAPCFNNVAEYESFLRTGVRGGGRGRGRARGAAAGSGVPAAPGPSGRTRRRPDAPAPDPEEAQEAERAMVAKEEGDGAAGAGRRGPGRSRKAPRNVLTRMPLHEGSPLGELHRCIREGVKVNVHIRTFKGLRGVCTGFLVAFDKFWNMALTDVDETYRKPVLGKAYERDSSLTLTRLFDRLKLQDSSKKEADSKSAVEDSTLSRYSQTSTWKLASVWGRADTGRGSHKRSRSVPSSLQASAREESRSELSGRTTRTDGSSVGGTFSRATTLSRGQSRKKKRKPKVDYQQVFTRHINQIFIRGENVLLVHLAQ
cleavage activity of the U7 snRNP with sextuple mutant Lsm11 toward the H2a* substrate, compared to the wild-type, in the absence of SLBP: ~3 fold lower
